Measurements published in patent publication US20250136686A1 (GUANGDONG KEGUANDA PHARMACEUTICAL TECHNOLOGY, published 2025).
Numbering of substitutions follows the chain as printed.

T1: CD101 (human, UniProt Q93033 21-1021)
T1 sequence (looked up): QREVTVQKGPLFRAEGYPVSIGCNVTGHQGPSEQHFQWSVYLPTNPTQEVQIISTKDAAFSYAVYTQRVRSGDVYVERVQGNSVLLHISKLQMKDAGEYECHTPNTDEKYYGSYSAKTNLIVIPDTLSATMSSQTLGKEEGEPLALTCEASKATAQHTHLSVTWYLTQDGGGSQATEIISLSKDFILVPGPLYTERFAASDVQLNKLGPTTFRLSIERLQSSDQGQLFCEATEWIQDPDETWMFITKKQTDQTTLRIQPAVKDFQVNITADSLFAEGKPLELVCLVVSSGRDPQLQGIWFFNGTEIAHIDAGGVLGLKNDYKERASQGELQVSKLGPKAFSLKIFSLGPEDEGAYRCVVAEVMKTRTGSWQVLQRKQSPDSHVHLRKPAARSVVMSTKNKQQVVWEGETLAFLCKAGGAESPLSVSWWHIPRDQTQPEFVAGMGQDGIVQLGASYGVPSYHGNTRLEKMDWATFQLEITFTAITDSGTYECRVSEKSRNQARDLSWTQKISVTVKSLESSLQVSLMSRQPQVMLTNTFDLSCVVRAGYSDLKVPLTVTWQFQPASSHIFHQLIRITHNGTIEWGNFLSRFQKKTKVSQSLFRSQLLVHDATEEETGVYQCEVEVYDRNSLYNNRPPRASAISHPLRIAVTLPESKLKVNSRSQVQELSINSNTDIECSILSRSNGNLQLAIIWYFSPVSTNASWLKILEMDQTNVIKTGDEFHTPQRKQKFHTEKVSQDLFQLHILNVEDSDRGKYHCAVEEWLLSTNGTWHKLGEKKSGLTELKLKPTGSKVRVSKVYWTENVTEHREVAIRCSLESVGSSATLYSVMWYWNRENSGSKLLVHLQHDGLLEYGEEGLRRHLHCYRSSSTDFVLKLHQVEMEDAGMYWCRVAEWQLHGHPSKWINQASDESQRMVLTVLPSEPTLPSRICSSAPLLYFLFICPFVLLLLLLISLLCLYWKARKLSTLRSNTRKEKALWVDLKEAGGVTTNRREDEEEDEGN

T2: CD101 (human, UniProt Q93033 21-1021)
T2 chain: T1 sequence (looked up)

B1: 19-A11-H3-B11-VH3VL2 humanized antibody (hu.CA4) (antibody, V domains shown)
VH: EVQLVQSGAEVKKPGASVKVSCKASGFTLTEYTIHWVRQAPGQGLEWIGWFYPGSGGIKYNEKFQDRVTLTADTSISTVYMELSRLRSDDTVVYFCARHAFYRNYEYFDVWGTGTMVTVSS
VL: DIVMTQAPLSLPVTPGTPASISCRSSKSLLHSNGITYLYWYLQKPGQSPQLLIYQMSNLASGVPDRFSSSGSGTDFTLKISRVEAEDVGVYYCAQNLELPLTFGAGTKLEIK
B2: humanized antibody VH1-VL1 (hu.CA1) (antibody, V domains shown)
VH: B1 VH with T74E, V92A
VL: B1 VL with L9F
B3: 19-A11-H3-B11 chimeric antibody (CA1) (antibody, V domains shown)
VH: EVQLQQSGAELVRPGASVKLSCKASGFTLTEYTIHWVKQRSGQGLEWIGWFYPGSGGIKYNEKFKDKATLTADESSSTVYMELSRLTSEDSAVYFCARHAFYRNYEYFDVWGTGTTVTVSS
VL: B1 VL with P8A, L9F, L11N, P15L, P18S, K79R, I111L
B4: humanized antibody VH3-VL1 (hu.CA3) (antibody, V domains shown)
VH: B1 VH
VL: B1 VL with L9F
B5: humanized antibody VH1-VL2 (hu.CA2) (antibody, V domains shown)
VH: B1 VH with T74E, V92A
VL: B1 VL
B6: humanized antibody VH3-VL3 (antibody, V domains shown)
VH: B1 VH
VL: B1 VL with L9F, L11S, P15L, L42Q, K44R, Q50R
notes: IgG1, kappa; tested as culture supernatant; also called VH-HM3 / VL-HM3
B7: humanized antibody VH4-VL1 (antibody, V domains shown)
VH: B1 VH with R38K, T74E, I76S, V92A
VL: B1 VL with L9F
notes: IgG1, kappa; tested as culture supernatant; also called VH-HM4 / VL-HM1
B8: humanized antibody VH2-VL2 (antibody, V domains shown)
VH: B1 VH with T74E, I76A, R85S, D89E, V92A
VL: B1 VL
notes: IgG1, kappa; tested as culture supernatant; also called VH-HM2 / VL-HM2
B9: humanized antibody VH2-VL3 (antibody, V domains shown)
VH: B1 VH with T74E, I76A, R85S, D89E, V92A
VL: B1 VL with L9F, L11S, P15L, L42Q, K44R, Q50R
notes: IgG1, kappa; tested as culture supernatant; also called VH-HM2 / VL-HM3
B10: humanized antibody VH2-VL1 (antibody, V domains shown)
VH: B1 VH with T74E, I76A, R85S, D89E, V92A
VL: B1 VL with L9F
notes: IgG1, kappa; tested as culture supernatant; also called VH-HM2 / VL-HM1
B11: humanized antibody VH1-VL3 (antibody, V domains shown)
VH: B1 VH with T74E, V92A
VL: B1 VL with L9F, L11S, P15L, L42Q, K44R, Q50R
notes: IgG1, kappa; tested as culture supernatant; also called VH-HM1 / VL-HM3
B12: humanized antibody VH4-VL2 (antibody, V domains shown)
VH: B1 VH with R38K, T74E, I76S, V92A
VL: B1 VL
notes: IgG1, kappa; tested as culture supernatant; also called VH-HM4 / VL-HM2
B13: humanized antibody VH4-VL3 (antibody, V domains shown)
VH: B1 VH with R38K, T74E, I76S, V92A
VL: B1 VL with L9F, L11S, P15L, L42Q, K44R, Q50R
notes: IgG1, kappa; tested as culture supernatant; also called VH-HM4 / VL-HM3

The binders below were run against T1, CD101 (assay: cell-based or functional assay).

Row | inhibitory effect for CD101 (flow cytometry of CD101 on Jurkat cells overexpressing CD101, 3 h, 1,600 ng/mL) | inhibitory effect for CD101 (flow cytometry of CD101 on Jurkat cells overexpressing CD101, 8 h, 1,600 ng/mL) | Binder
1 | ~80% | ≥ 90% | B1
2 | ~80% | ≥ 90% | B2
3 | ~80% | ≥ 90% | B3
4 | ~80% | ≥ 90% | B4
5 | ~80% | ≥ 90% | B5

Molecular target: T2, CD101
Assay: FACS

Row | EC50 | Binder
6 | 8.49 mg/L | B1
7 | 7.9 mg/L | B2
8 | 6.62 mg/L | B3
9 | 11 mg/L | B4
10 | 9.1 mg/L | B5

Each binder was assayed against T1, CD101 (assay: FACS, culture supernatant on 293F-CD101 cells).
Method: Expression vectors for humanized antibodies carrying a designed heavy-chain or light-chain sequence were transiently transfected into 293F cells in pairs according to a standard protocol. Specifically, PBS was added at 2 mL/well to a 6-well plate, then 2 μg of a pcDNA3.4-IgG1 expression vector and 2 μg of a pcDNA3.4-IgKc expression vector were added, and thorough mixing was conducted by pipetting up and down. 12 μL of a LVTransm transfection reagent was added, then thorough mixing was immediately conducted by pipetting up and down, and the plate was allowed to stand at room temperature for 10 min. A DNA/LVTransm complex was added to 3 mL of 293F cells, and gentle shaking was conducted for thorough mixing. The cells were further cultured for 3 d in a 37° C. and 5% CO₂ incubator, and a culture supernatant was collected through centrifugation and tested by FACS.
FACS was conducted according to a standard protocol. […] Cells were washed with PBS 3 times. 100 μL of a secondary antibody (PE-anti-human IgG, which was diluted 1:200) was added, thorough mixing was conducted, and incubation was conducted for 45 min at room temperature in the dark. Cells were washed with PBS 3 times and then resuspended with 500 μL of PBS. A fluorescence intensity was read by a multimode microplate reader for FACS analysis. […] In the follow-up experiments, the four combinations of VH1-VL1, VH1-VL2, VH3-VL1, and VH3-VL2 (hu.CA1 to hu.CA4) were taken as examples for antibody purification and affinity testing.

Row | binding result | Binder
11 | binds | B6
12 | binds | B7
13 | binds | B8
14 | binds | B9
15 | binds | B10
16 | binds | B11
17 | binds | B12
18 | binds | B13
